In article PMC9650030, “The RNA repair proteins RtcAB regulate transcription activator RtcR via its CRISPR-associated Rossmann fold domain” (iScience, 2022):

B1: His-RtcA (N-terminal his-tagged RNA 3'-terminal phosphate cyclase RtcA) (enzyme, Escherichia coli, UniProt P46849 1-338, looked up)
chain: MKRMIALDGAQGEGGGQILRSALSLSMITGQPFTITSIRAGRAKPGLLRQHLTAVKAATEICGATVEGAELGSQRLLFRPGTVRGGDYRFAIGSAGSCTLVLQTVLPALWFADGPSRVEVSGGTDNPSAPPADFIRRVLEPLLAKIGIHQQTTLLRHGFYPAGGGVVATEVSPVASFNTLQLGERGNIVQMRGEVLLAGVPRHVAEREIATLAGSFSLHEQNIHNLPRDQGPGNTVSLEVESENITERFFVVGEKRVSAEVVAAQLVKEVKRYLASTAAVGEYLADQLVLPMALAGAGEFTVAHPSCHLLTNIAVVERFLPVRFSLIETDGVTRVSIE
notes: RtcA, RNA 3'-terminal phosphate cyclase, Escherichia coli; not shown: His tag, N-terminal, kept

Tests used:
[1] = molecular target: MBP-RtcR (wild-type, full-length RtcR N-terminally tagged with maltose binding protein) (Escherichia coli) (UniProt P38035); experiment: MST; RED-NHS-labelled MBP-RtcRWT or RtcR_(ΔCARF) (diluted to 50 nM, mixed with an equal volume) against a serial dilution of RtcA or RtcB; 24°C; modified PBS (250 mM NaCl) with 0.05% Tween-20; fitted with the Hill equation
[2] = molecular target: T1, MBP-RtcR (wild-type, full-length RtcR N-terminally tagged with maltose binding protein) (Escherichia coli, UniProt P38035 1-532, labelled with Monolith RED-NHS 2nd Generation dye (amine reactive) in the MST experiments only); experiment: as above; settings: both partners purified
T1 construct: also called RtcRWT; MBP-RtcRWT; not shown: MBP, N-terminal, kept
T1 sequence (looked up): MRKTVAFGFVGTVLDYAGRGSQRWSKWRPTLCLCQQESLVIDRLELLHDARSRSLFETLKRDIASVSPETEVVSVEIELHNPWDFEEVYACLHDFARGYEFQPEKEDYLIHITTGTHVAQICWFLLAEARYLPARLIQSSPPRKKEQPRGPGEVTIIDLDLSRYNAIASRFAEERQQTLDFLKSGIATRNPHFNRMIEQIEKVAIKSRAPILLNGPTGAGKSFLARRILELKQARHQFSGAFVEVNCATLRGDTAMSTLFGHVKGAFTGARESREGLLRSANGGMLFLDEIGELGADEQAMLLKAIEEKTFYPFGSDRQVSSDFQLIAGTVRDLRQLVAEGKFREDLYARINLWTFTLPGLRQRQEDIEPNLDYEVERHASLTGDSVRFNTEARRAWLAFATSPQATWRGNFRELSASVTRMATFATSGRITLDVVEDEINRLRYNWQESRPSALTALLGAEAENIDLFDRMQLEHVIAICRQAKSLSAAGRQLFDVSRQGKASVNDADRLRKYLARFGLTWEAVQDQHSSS

Molecule | Kd [1] | Kd [2]
His-RtcB (N-terminal his-tagged RNA ligase RtcB) (from UniProt P46850 1-408) (enzyme) | 14.5 µM | 
B1 |  | ~5 µM
